Reference: PMC4500542 (Cell reports, 2015)
Read-outs that look alike come from different tables or passages of the source.

B1: MBP-EBOV NP 1-450 (oligomeric, RNA-bound) (domain or fragment)
chain: MDSRPQKIWMAPSLTESDMDYHKILTAGLSVQQGIVRQRVIPVYQVNNLEEICQLIIQAFEAGVDFQESADSFLLMLCLHHAYQGDYKLFLESGAVKYLEGHGFRFEVKKRDGVKRLEELLPAVSSGKNIKRTLAAMPEEETTEANAGQFLSFASLFLPKLVVGEKACLEKVQRQIQVHAEQGLIQYPTAWQSVGHMMVIFRLMRTNFLIKFLLIHQGMHMVAGHDANDAVISNSVAQARFSGLLIVKTVLDHILQKTERGVRLHPLARTAKVKNEVNSFKAALSSLAKHGEYAPFARLLNLSGVNNLEHGLFPQLSAIALGVATAHGSTLAGVNVGEQYQQLREAATEAEKQLQQYAESRELDHLGLDDQEKKILMNFHQKKNEISFQQTNAMVTLRKERLAKLTEAITAASLPKTSGHYDDDDDIPFPGPINDDDNPGHQDDDPTDSQ
B2: EBOV NP 1-450 released by TEV protease from the cleavable fusion (RNA-free) (domain or fragment)
chain: B1 chain
B3: EBOV NP 1-450 (co-expressed with His-VP35 1-80) (domain or fragment)
chain: B1 chain
B4: EBOV NP 1-450 (oligomeric, RNA-bound, purified directly from E. coli) (domain or fragment)
chain: B1 chain
B5: MBP-EBOV NP 19-389 (domain or fragment)
chain: MDYHKILTAGLSVQQGIVRQRVIPVYQVNNLEEICQLIIQAFEAGVDFQESADSFLLMLCLHHAYQGDYKLFLESGAVKYLEGHGFRFEVKKRDGVKRLEELLPAVSSGKNIKRTLAAMPEEETTEANAGQFLSFASLFLPKLVVGEKACLEKVQRQIQVHAEQGLIQYPTAWQSVGHMMVIFRLMRTNFLIKFLLIHQGMHMVAGHDANDAVISNSVAQARFSGLLIVKTVLDHILQKTERGVRLHPLARTAKVKNEVNSFKAALSSLAKHGEYAPFARLLNLSGVNNLEHGLFPQLSAIALGVATAHGSTLAGVNVGEQYQQLREAATEAEKQLQQYAESRELDHLGLDDQEKKILMNFHQKKNEISFQ
B6: MBP-EBOV NP 1-739 (oligomeric, RNA-bound) (natural protein)
chain: MDSRPQKIWMAPSLTESDMDYHKILTAGLSVQQGIVRQRVIPVYQVNNLEEICQLIIQAFEAGVDFQESADSFLLMLCLHHAYQGDYKLFLESGAVKYLEGHGFRFEVKKRDGVKRLEELLPAVSSGKNIKRTLAAMPEEETTEANAGQFLSFASLFLPKLVVGEKACLEKVQRQIQVHAEQGLIQYPTAWQSVGHMMVIFRLMRTNFLIKFLLIHQGMHMVAGHDANDAVISNSVAQARFSGLLIVKTVLDHILQKTERGVRLHPLARTAKVKNEVNSFKAALSSLAKHGEYAPFARLLNLSGVNNLEHGLFPQLSAIALGVATAHGSTLAGVNVGEQYQQLREAATEAEKQLQQYAESRELDHLGLDDQEKKILMNFHQKKNEISFQQTNAMVTLRKERLAKLTEAITAASLPKTSGHYDDDDDIPFPGPINDDDNPGHQDDDPTDSQDTTIPDVVVDPDDGSYGEYQSYSENGMNAPDDLVLFDLDEDDEDTKPVPNRSTKGGQQKNSQKGQHIEGRQTQSRPIQNVPGPHRTIHHASAPLTDNDRRNEPSGSTSPRMLTPINEEADPLDDADDETSSLPPLESDDEEQDRDGTSNRTPTVAPPAPVYRDHSEKKELPQDEQQDQDHTQEARNQDSDNTQSEHSFEEMYRHILRSQGPFDAVLYYHMMKDEPVVFSTSDGKEYTYPDSLEEEYPPWLTEKEAMNEENRFVTLDGQQFYWPVMNHKNKFMAILQHHQ

What was measured:
[1] = molecular target: EBOV NP° core domain (NP 34-367) (Ebola virus (EBOV, formerly Zaire ebolavirus)) (UniProt P18272); test: ITC
[2] = molecular target: the molecule itself; test: SEC-MALS
[3] = molecular target: the molecule itself; test: SEC-MALS; remark: listed apart in the source

Molecule | binding result [2] | further results
EBOV VP35 1-80 peptide (purified, wild type) (from UniProt Q05127 1-80) (domain or fragment) | – | Kd [1]: 1.1 nM
B1 | binds | –
B2 | binds | –
B3 | binds | –
B4 | binds | –
B5 | binds | –
B6 | – | binding result [3]: binds
